We go through 4 molecules from paper doi:10.1101/2020.12.30.424835 (bioRxiv, 2020).

For assay [1], the target named is T1, Ctf3 complex (Ctf3, Mcm16, Mcm22), wild type, recombinant (yeast, UniProt Q12748;Q12262;P47167). Nature of the assay: fluorescence polarisation.
For assay [2], the target named is T1, Ctf3 complex (Ctf3, Mcm16, Mcm22), wild …. The experiment in a line: pull-down.

T1 sequence (Q12748 whole entry, chain 1 of 3): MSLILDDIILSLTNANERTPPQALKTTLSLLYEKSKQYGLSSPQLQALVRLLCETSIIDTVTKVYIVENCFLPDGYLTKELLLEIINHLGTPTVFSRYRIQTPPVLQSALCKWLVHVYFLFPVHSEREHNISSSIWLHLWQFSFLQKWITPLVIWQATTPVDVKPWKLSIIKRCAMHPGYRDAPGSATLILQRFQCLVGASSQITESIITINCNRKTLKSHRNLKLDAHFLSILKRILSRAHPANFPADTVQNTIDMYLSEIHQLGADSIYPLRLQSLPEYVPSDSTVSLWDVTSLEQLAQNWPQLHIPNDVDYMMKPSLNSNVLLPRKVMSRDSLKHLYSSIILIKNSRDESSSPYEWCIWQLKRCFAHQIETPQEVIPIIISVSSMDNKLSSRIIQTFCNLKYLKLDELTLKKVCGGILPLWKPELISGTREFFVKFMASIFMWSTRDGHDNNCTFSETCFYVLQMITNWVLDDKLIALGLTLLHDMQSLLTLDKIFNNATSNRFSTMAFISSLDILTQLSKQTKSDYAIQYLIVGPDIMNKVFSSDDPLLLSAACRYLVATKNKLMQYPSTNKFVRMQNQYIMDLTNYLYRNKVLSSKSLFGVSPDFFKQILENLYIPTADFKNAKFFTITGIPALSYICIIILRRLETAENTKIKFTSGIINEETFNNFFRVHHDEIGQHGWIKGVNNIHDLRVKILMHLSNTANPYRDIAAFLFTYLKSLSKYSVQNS
T1 sequence (Q12262 whole entry, chain 2 of 3): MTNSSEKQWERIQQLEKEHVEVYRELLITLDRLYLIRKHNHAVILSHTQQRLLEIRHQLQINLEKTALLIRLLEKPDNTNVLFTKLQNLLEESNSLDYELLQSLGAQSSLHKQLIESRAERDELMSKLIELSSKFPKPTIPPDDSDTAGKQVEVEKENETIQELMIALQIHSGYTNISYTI
T1 sequence (P47167 whole entry, chain 3 of 3): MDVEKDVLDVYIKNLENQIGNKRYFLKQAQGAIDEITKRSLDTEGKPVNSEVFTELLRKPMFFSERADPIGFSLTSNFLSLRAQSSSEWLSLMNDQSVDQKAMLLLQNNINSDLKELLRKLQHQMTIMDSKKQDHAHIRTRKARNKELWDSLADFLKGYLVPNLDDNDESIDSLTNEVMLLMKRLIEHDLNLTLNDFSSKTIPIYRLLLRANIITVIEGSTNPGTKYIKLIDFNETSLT

With DDSDVNLIGSS (fITC-AHA on the N-terminus) [FITC-Ulp2-KIM peptide (fITC-AHA-DDSDVNLIGSS; Ulp2-927-937)], in assay [1], the Kd is roughly 900 nM.

With ADSDVNLIGSS (domain or fragment) [GST-Ulp2-KIM 1DA-1 (minimal KIM, D927A)], in assay [2], the binding result is “binds”. On to DDSDVNLIGSS (domain or fragment) [GST-Ulp2-927-937 (minimal Ulp2-KIM, wild type)], for which, in assay [2], the binding result is on record as “binds”. For the molecule DDSDVALIGSS (domain or fragment) [GST-Ulp2-927-937 N932A], the binding result in assay [2] was “binds”.
